Publication PMC7823470, “Arabidopsis Plant Natriuretic Peptide Is a Novel Interactor of Rubisco Activase” (Life, 2020)
“Also recorded” adds a separate entry of the source. Bridge positions count the residues as written; N and C are the ends. Ends that are not written are not given here. Peptide text beside a SMILES is read from it. * marks the point of attachment. Biotin = O=C1N[C@H]2[C@H](CS[C@H]2CCCCC(=O)*)N1

Legend:
recombinant RCA (rRCA) [1] = target: T1, recombinant RCA (rRCA) (Arabidopsis thaliana, UniProt P10896); experiment: biochemical; type: binding
T1 construct: made in house; host or cells: E. coli BL21 (DE3) One Shot
Procedure: (§1) SPR experiments were performed at 20 °C on a Biacore T100 instrument (GE Healthcare LifeSciences) with the use of Series S CM5 […] sensor chips as previously described. Data were acquired with Biacore T100 control software (version 2.0.2, GE Healthcare LifeSciences, Chicago, IL, USA). Kinetic analyses were performed at the flow of 100 μL min^−1 with pAtPNP-A (at 3.78 μM and consecutive two-fold dilutions; 11 injections included) […], whereas recombinant His-tagged RCA was used as […] immobilized on the active surface of the series S CM5 sensor chip with amine coupling kit. The surface was regenerated with glycine solution, pH 2.0 (GE Healthcare LifeSciences). The final sensorgram was generated with Scrubber (BioLogic Software Pty Ltd., Campbell, Australia).
In both analyses the ligand was immobilized at the same levels, analytes were injected at the same concentration and conditions of runs kept constant.

recombinant RCA (rRCA) [2] = target: T2, recombinant RCA (rRCA) (Arabidopsis thaliana, UniProt P10896); experiment: SPR, rAtPNP-A analyte over immobilized rRCA (CM5 chip); type: binding; settings: for SPR binding to rRCA: rRCA amine-coupled on CM5 chip, rAtPNP-A as analyte, 20 °C, Biacore T100
T2 construct: made in house; host or cells: E. coli BL21 (DE3) One Shot
T2 sequence (P10896 whole entry, looked up): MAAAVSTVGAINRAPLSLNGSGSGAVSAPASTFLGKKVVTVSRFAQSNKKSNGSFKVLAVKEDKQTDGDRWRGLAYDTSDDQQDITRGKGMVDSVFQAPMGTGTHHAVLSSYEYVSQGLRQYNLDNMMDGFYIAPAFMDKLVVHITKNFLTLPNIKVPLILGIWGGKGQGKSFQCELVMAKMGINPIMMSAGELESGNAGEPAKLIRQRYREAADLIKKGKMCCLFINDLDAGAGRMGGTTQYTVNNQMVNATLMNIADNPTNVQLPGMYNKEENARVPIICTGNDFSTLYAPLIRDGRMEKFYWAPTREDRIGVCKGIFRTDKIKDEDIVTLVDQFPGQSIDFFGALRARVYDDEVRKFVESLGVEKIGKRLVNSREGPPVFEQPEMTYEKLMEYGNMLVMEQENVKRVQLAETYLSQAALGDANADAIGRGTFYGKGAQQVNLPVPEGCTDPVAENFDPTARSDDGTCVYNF
Procedure: as §1
Figure 2 AtPNP-A directly interacts with Arabidopsis RCA in vitro. (a) Molecular docking of AtPNP-A and RCA monomer. Surface model depicts predicted docking of AtPNP-A (blue), with its active region (cyan), and RCA (tan). The structure of AtPNP-A was predicted using the iterative threading assembly refinement (I-TASSER; version 5.1) method, while the 4W5W crystal structure of A. thaliana RCA [33] was derived from RCSB PDB. Protein—protein docking was performed using ClusPro). The models were analyzed and visualized using UCSF Chimera (version 1.10.2). (b) Recombinant protein preparations used in SPR analyses. (c) Exemplar sensorgrams depicting referenced binding response of the recombinant RCA and AtPNP-A proteins.

[3] = system: A. thaliana (Col-0) mesophyll cell protoplasts; experiment: Mesophyll cell protoplast (MCP) volume assay; type: cell-based, Arabidopsis thaliana; settings: MCPs in 0.4 M mannitol, 20 min; 100 nM peptide or 1 μg mL^−1 rAtPNP-A; confocal microscopy, n = 50
Description: Figure 1 Biologically active peptide containing the active region of AtPNP-A binds to RCA. (a) Schematics showing domain organization of AtPNP-A and the amino acid sequence of N-terminally biotinylated peptides used in the affinity-based experiments. pAtPNP-A—a peptide containing the active site of AtPNP-A; pScr—the corresponding scrambled peptide; SP—signal peptide. Cysteine residues forming a disulfide bond are underlined. (b) Assaying biological activity of the pAtPNP-A and purified recombinant AtPNP-A (rAtPNP-A). A. thaliana (Col-0) mesophyll cell protoplasts suspended in 0.4 M mannitol were treated with either water, or 100 nM pScr (negative control), or with 100 nM pAtPNP-A, or with 1 μg mL^−1 of rAtPNP-A protein for 20 min at room temperature. In each treatment, 50 randomly selected protoplasts with diameter >20 μm were included in quantitative analysis (scale bar = 20 μm). Protoplast volume was measured, and the data obtained from an exemplar experiment are plotted. […]
Biological activity of the synthetic peptides was verified in mesophyll cell protoplast (MCP) volume assay. […] Data are expressed as mean ± SD, and statistical analyses of one-way ANOVA followed by Tukey-Kramer multiple comparison test were performed using Prism 8.0 (GraphPad Software, San Diego, CA, USA).

[4] = target: T3, purified recombinant N-terminally His-tagged rubisco activase (rRCA) (Arabidopsis thaliana, UniProt P10896 59-474); experiment: SPR; kinetic analysis: His-tagged rRCA immobilised by amine coupling on a Series S CM5 chip, pAtPNP-A injected at 3.78 μM and consecutive two-fold dilutions (11 injections), flow 100 μL/min, regeneration with glycine pH 2.0; Biacore T100, 20 °C; settings: both partners purified
T3 construct: Rubisco activase (RCA), A. thaliana, At2g39730; also called recombinant RCA; source: E. coli BL21 (DE3) One Shot, purified (Ni-NTA beads, HisTrap HP column); not shown: His6, N-terminal, kept
T3 sequence (looked up): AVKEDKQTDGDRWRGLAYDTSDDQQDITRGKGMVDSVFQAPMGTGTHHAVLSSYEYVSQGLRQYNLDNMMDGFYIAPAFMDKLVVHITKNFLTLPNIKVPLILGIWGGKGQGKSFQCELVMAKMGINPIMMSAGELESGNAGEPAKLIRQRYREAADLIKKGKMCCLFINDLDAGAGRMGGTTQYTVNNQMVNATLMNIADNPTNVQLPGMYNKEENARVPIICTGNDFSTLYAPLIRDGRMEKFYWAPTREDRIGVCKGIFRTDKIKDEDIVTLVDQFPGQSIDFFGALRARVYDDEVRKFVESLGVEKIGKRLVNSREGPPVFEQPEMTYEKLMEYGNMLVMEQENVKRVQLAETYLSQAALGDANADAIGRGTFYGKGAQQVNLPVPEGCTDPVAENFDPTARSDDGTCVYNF

[5] = target: T3, purified recombinant N-terminally …; experiment: as above; settings: both partners purified; remark: listed apart in the source

CC(C)C[C@@H]1NC(=O)[C@H](CC(N)=O)NC(=O)[C@H](CC(N)=O)NC(=O)[C@H](CCCCN)NC(=O)[C@H](C(C)C)NC(=O)CNC(=O)[C@H](C(C)C)NC(=O)[C@H](C(C)C)NC(=O)[C@H](CC(C)C)NC(=O)[C@H]([C@@H](C)O)NC(=O)[C@H](CCC(=O)O)NC(=O)[C@H](CCCNC(=N)N)NC(=O)[C@H](CCC(N)=O)NC(=O)[C@H]([C@@H](C)O)NC(=O)CNC(=O)[C@H](Cc2ccc(O)cc2)NC(=O)[C@@H](NC(=O)[C@H](C)NC(=O)[C@H](CO)NC(=O)[C@H](CCCNC(=N)N)NC(=O)[C@@H](NC(=O)[C@H](Cc2ccc(O)cc2)NC(=O)[C@@H]2CCCN2C(=O)[C@@H]2CCCN2C(=O)[C@H](CC(=O)O)NC(=O)[C@H](Cc2ccc(O)cc2)NC(=O)[C@H](Cc2ccc(O)cc2)NC(=O)[C@@H](NC(=O)[C@H](C)NC(=O)CCCC[C@@H]2SC[C@@H]3NC(=O)N[C@@H]32)C(C)C)[C@@H](C)O)CSSC[C@@H](C(=O)NCC(=O)N[C@@H](CCCNC(=N)N)C(=O)N[C@@H](CCCNC(=N)N)C(=O)N[C@@H](Cc2ccc(O)cc2)C(=O)O)NC(=O)[C@H](C)NC(=O)[C@H](CCCNC(=N)N)NC(=O)CNC(=O)[C@H](CC(N)=O)NC(=O)[C@H](CCC(N)=O)NC(=O)[C@H](Cc2c[nH]c3ccccc23)NC1=O [pAtPNP-A] (Biotin-AVYYDPPYTRSACYGTQRETLVVGVKNNLWQNGRACGRRY-OH; disulfide 13-36)
dissociation constant, range in words (recombinant RCA (rRCA) [1]): sub-micromolar range; also recorded: nanomolar range | kon (recombinant RCA (rRCA) [1]; read-out: ka (±SE), association rate constant): 16300 M⁻¹ s⁻¹ | koff (recombinant RCA (rRCA) [1]; read-out: kd (±SE), dissociation rate constant): 0.000852 s⁻¹

B1: rAtPNP-A: purified N-terminally His-tagged AtPNP-A protein (protein)
chain: AQGKAVYYDPPYTRSACYGTQRETLVVGVKNNLWQNGRACGRRYRVRCIGATYNFDRACTGRTVDVKVVDFCREPCNGDLNLSRDAFRVIANTDAGNIRVVYTPI
modifications: left off: His6, N-terminal, kept
notes: purified N-terminally His-tagged AtPNP-A protein
SPR binding to RCA (abstract, in words) (recombinant RCA (rRCA) [2]; full-length recombinant AtPNP-A, SPR): bind specifically to RCA | SPR binding to rRCA (recombinant RCA (rRCA) [2]): bound to the rRCA protein immobilized on the active surface | SPR binding to rRCA (recombinant RCA (rRCA) [2]; listed as recombinant AtPNP-A): confirmed by us in vitro | Effect on protoplast volume [3]: protoplast volume increase

B2: pAtPNP-A, N-terminally biotinylated AtPNP-A(33–66) peptide containing the active region of AtPNP-A (peptide, UniProt Q9ZV52 33-66, looked up)
peptide: Biotin-YDPPYTRSACYGTQRETLVVGVKNNLWQNGRACG
modifications: disulfide 10-33 (inferred)
notes: AtPNP-A (plant natriuretic peptide A), A. thaliana, At2g18660, residues 33-66 (active region); Peptides were bought with or without the N-terminal biotin tag; also called biologically active fragment of AtPNP-A; source: synthetic peptide, bought: GenScript (purity at least 95%, HPLC)
Kd [4]: 53 nM | Kd [5]: 52.3 nM
